Results: patent US20240407995A1, “BIOMINERALIZATION MATERIAL FOR TREATING DENTIN HYPERSENSITIVITY AND PROMOTING EPITAXIAL GROWTH OF ENAMEL, AND USE THEREOF” (SHAANXI NORMAL UNIVERSITY, priority 2022, published 2024)

Assay: Film-forming critical line of lysozyme concentration vs cysteine concentration
Assay type: physicochemical
Details: FIG. 2
Protocol: In order to study a film-forming critical line between a film-forming protein and cysteine, the inventors prepared different concentrations of film-forming protein solutions and cysteine solutions, and curves were drawn as shown in FIG. 2. […] However, when the protein concentration was 0.2 mg/mL, higher concentration of cysteine was required for film formation.

lysozyme [Lyz]
protein concentration at which a small amount of cysteine could form a film: greater than or equal to 0.2 mg/mL
